Measured values: patent US20230049152A1 (Genentech, published 2023)
Where a chain is given by its changes, count along the chain named.

T1: V9A
T1 construct: single alanine mutant of hCCR8; also called hCCR8 V9A
T1 receptor chain: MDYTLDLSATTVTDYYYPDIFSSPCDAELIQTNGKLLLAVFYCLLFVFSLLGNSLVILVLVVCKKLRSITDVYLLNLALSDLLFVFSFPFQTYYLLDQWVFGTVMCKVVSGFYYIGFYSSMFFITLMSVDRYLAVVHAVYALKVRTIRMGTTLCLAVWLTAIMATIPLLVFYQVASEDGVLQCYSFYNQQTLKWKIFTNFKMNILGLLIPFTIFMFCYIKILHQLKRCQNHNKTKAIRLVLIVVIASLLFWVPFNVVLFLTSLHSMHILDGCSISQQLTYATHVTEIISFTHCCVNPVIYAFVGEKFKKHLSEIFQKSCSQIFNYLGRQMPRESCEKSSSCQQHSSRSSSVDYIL

T2: S22A
T2 construct: single alanine mutant of hCCR8; also called hCCR8 S22A
T2 receptor chain: T1 receptor chain with A9V, S22A

T3: S8A
T3 construct: single alanine mutant of hCCR8; also called hCCR8 S8A
T3 receptor chain: T1 receptor chain with S8A, A9V

T4: V12A
T4 construct: single alanine mutant of hCCR8; also called hCCR8 V12A
T4 receptor chain: T1 receptor chain with A9V, V12A

T5: Y15A
T5 construct: single alanine mutant of hCCR8; also called hCCR8 Y15A
T5 receptor chain: T1 receptor chain with A9V, Y15A

B1: hu.Ab4.H12L3 (antibody, human IgG1, kappa)
heavy: not shown
light: DYQMTQSPSSLSASVGDRVTITCQASQSISSYLSWYQQKPGKAPKLLIYKASTLASGVPSRFSGSGSGTDFTLTISSLQPEDFATYYCQQGYTSSNIDNIFGGGTKVEIKRTVAAPSVFIFPPSDEQLKSGTASVVCLLNNFYPREAKVQWKVDNALQSGNSQESVTEQDSKDSTYSLSSTLTLSKADYEKHKVYACEVTHQGLSSPVTKSFNRGEC
notes: fucosylated human IgG1; also called huCCR8-Ab4.H12L3.hIgG1; Ab4 variant
B2: hu.Ab5.H13L1 (antibody, human IgG1, kappa)
heavy: not shown
light: DIQVTQSPSSLSASVGDRVTITCQASENIANALAWYQQKPGKPPKFLIYGASNLASGVPSRFSGSGSGTDFTFTISSLQPEDIATYYCQQAYYGNSFVEGTFGGGTKVEIKRTVAAPSVFIFPPSDEQLKSGTASVVCLLNNFYPREAKVQWKVDNALQSGNSQESVTEQDSKDSTYSLSSTLTLSKADYEKHKVYACEVTHQGLSSPVTKSFNRGEC
notes: fucosylated human IgG1; also called Ab5 variant

Key:
human CCR8 = human CCR8 (human, UniProt P51685 1-355); test: cell-based or functional assay
hCCR8 Y3A = target: T6, hCCR8 Y3A (human, UniProt P51685 1-355); test: flow cytometry, HEK293 transfected with hCCR8 Y3A with C-terminal FLAG
T6 construct: alanine point mutant on transfected HEK 293 cells
Experimental: FIGS. 16A-16B depict the epitope maps for hu.Ab5.H13L1 (FIG. 16A) and hu.Ab4.H12L3 (FIG. 16B) mAbs.
To epitope map fucosylated hu.Ab5.H13L1, the binding to alanine point mutations in human CCR8 was analyzed by flow cytometry.

V9A = target: T1, V9A; test: flow cytometry, HEK293 transfected with hCCR8 V9A with C-terminal FLAG; sheet prints [huCCR8]=0.02 ug/ml
S22A = target: T2, S22A; test: flow cytometry, HEK293 transfected with hCCR8 S22A with C-terminal FLAG; sheet prints [huCCR8]=0.02 ug/ml
S8A = target: T3, S8A; test: flow cytometry, HEK293 transfected with hCCR8 S8A with C-terminal FLAG; sheet prints [huCCR8]=0.02 ug/ml
V12A = target: T4, V12A; test: flow cytometry, HEK293 transfected with hCCR8 V12A with C-terminal FLAG; sheet prints [huCCR8]=0.02 ug/ml
hCCR8 D2A = target: T7, hCCR8 D2A (human, UniProt P51685 1-355); test: flow cytometry, HEK293 transfected with hCCR8 D2A with C-terminal FLAG
T7 construct: alanine point mutant on transfected HEK 293 cells

Y15A = target: T5, Y15A; test: flow cytometry, HEK293 transfected with hCCR8 Y15A with C-terminal FLAG; sheet prints [huCCR8]=0.02 ug/ml

Binder	ADCP EC50, macrophages HR/FF (FIG. 14A) (human CCR8) [nM]	ADCP EC50, macrophages RR/FF (FIG. 14B) (human CCR8) [nM]	ADCP EC50, macrophages RR/VF (FIG. 14D) (human CCR8) [nM]	binding result (hCCR8 Y3A)	binding result (V9A)	binding result (S22A)	binding result (S8A)	binding result (V12A)	binding result (hCCR8 D2A)	binding result (Y15A)
B1	0.35	0.81	0.41							
B2				no binding (tested: 0.02 ug/ml)	binds	binds	binds	binds	no binding (tested: 0.02 ug/ml)	binds
